Tested on: endogenous PP1α
Test: GFP affinity capture / co-IP of endogenous PP1α with GFP-tagged bait
Format: binding, human
Conditions: HEK 293T cells, 24 h post-transfection, GFP-Trap, immunoblot; representative of two independent experiments
From the text: Bacterial expression plasmids encoding the mouse PP1γ catalytic domain (residues 7–300)-H6 and pUL21-H6, and mammalian expression vectors encoding pUL21(FV242AA)-GFP, pORF38-GFP and pORF38(FV255AA)-GFP, were described previously ([23]). We note that the mouse and human PP1γ catalytic domains share 100% amino acid identity. pORF38-NLT-H6 was generated by sub-cloning residues 1 to 263 of ORF38 into the vector pOPTnH ([52]). pUL21-RVxF-H6 was generated by inserting the mutations A237V and V239F into pUL21-H6 by QuikChange site-directed mutagenesis. Human PP1α was cloned from HeLa cell cDNA into a vector derived from pF5K (Promega) with an N-terminal Myc epitope tag via restriction-based cloning, and point mutations were introduced into Myc-PP1α by QuikChange mutagenesis. A plasmid encoding pUL21-GFP was generated by sub-cloning a codon-optimized synthetic UL21 gene (GeneArt) into pEGFP-N1 (Clontech), yielding an identical pUL21-GFP amino acid sequence as used in ([23]). pUL21-ΔL, -ΔR and -ΔLR were generated from this vector via inverse PCR, and point mutations were introduced via QuikChange mutagenesis.
Mycoplasma-free human embryonic kidney 293T (HEK 293T) cells (American Type Culture Collection #CRL-3216) were maintained in Dulbecco’s modified Eagle’s medium (DMEM) with high glucose (Merck), supplemented with 10% (v/v) heat-inactivated fetal calf serum and 2 mM L-glutamine (complete DMEM) in a humidified 5% CO2 atmosphere at 37 °C. The identity of the cell line was not independently confirmed.
Monolayers of HEK 293T cells were transfected with 7.7 μg of DNA per 9 cm dish, using 18 μg/ml 25 kDa branched polyethylenimine (Merck) or using TransIt-LT1 (Mirus) in accordance with the manufacturer’s instructions. Cells were harvested 24 h post-transfection and incubated for 30 min in ice-cold 10 mM Tris pH 7.5, 150 mM NaCl, 0.5 mM EDTA, 0.5% Igepal CA-630 (a.k.a. NP-40), 1% (v/v) EDTA-free protease inhibitor cocktail (Merck) before clarification at 21,000×g for 10 min at 4 °C. Lysate protein concentrations were measured using the bicinchoninic acid (BCA) assay (Pierce) and normalized before affinity capture using GFP-Trap resin (ChromoTek) following the manufacturer’s protocol. Samples were eluted by heating the resin to 95 °C for 5 min in 45 μl 2 × SDS-PAGE loading buffer. Proteins were separated by SDS-PAGE and transferred to 0.45 μm nitrocellulose membranes (PerkinElmer or Cytiva). Membranes were stained with Ponceau S and imaged using a G:Box XX9 (Syngene) before blocking in Tris-buffered saline with 0.1% TWEEN-20 (TBS-T) supplemented with 5% (w/v) non-fat milk powder. Immunoblotting was performed using antibodies diluted in blocking buffer as listed below, and immunoblots were imaged using an Odyssey CLx (LI-COR Biosciences). Densitometry was performed using Image Studio Lite version 5.2 (LI-COR Biosciences), and statistical tests were performed using Prism version 7 (GraphPad).
The following primary antibodies and dilutions were used for immunoblotting: rabbit anti-CERT 1:10,000 (Abcam #Ab72536), mouse anti-PP1α 1:1000 (Santa Cruz #sc-271762), mouse anti-Myc 1:4000 (Millipore #05–724), rat anti-tubulin (clone YL1/2) hybridoma supernatant 1:40 ([54]). The anti-CERT antibody was validated using a knock-out cell line. The anti-PP1α antibody has been validated by siRNA knockdown ([55]). The anti-Myc antibody was validated using control experiments lacking Myc-tagged transfected constructs ([56]). The anti-tubulin antibody has been validated by immunofluorescence microscopy, immuno-electron microscopy and radiolabeled immunosorbent assay ([54]). Secondary antibodies from LI-COR Biosciences were diluted 1:10,000 as follows: IRDye 680RD goat anti-rat (#926–68029) and goat anti-mouse (#926–68020), or IRDye 800CW goat anti-rabbit (#926–32221).

Molecule	Co-IP of endogenous PP1α
H247F (protein, left off: GFP (from the vector pEGFP-N1), end not stated, kept) MELSYATTMHYRDVVFYVTTDRNRAYFVCGGCVYSVGRPCASQPGEIAKFGLVVRGTGPDDRVVANYVRSELRQRGLQDVRPIGEDEVFLDSVCLLNPNVSSELDVINTNDVEVLDECLAEYCTSLRTSPGVLISGLRVRAQDRIIELFEHPTIVNVSSHFVYTPSPYVFALAQAHLPRLPSSLEALVSGLFDGIPAPRQPLDAHNPRTDVVITGRRAPRPIAGSGAGSGGAGAKRATVSEFVQVKFIDRVGPAGVSPAPPPNNTDSSSLVPGAQDSAPPGPTLRELWWVFYAADRALEEPRADSGLTREEVRAVRGFREQAWKLFGSAGAPRAFIGAALGLSPLQKLAVYYYIIHRERRLSPFPALVRLVGRYTQRHGLYVPRPDDPVLADAINGLFRDALAAGTTAEQLLMFDLLPPKDVPVGSDVQADSTALLRFIESQRLAVPGGVISPEHVAYLGAFLSVLYAGRGRMSAATHTARLTGVTSLVLAVGDVDRLSAFDRGAAGAASRTRAAGYLDVLLTVRLARSQHGQSV	co-precipitated more PP1α than did WT pUL21-GFP
A232K (protein, left off: GFP (from the vector pEGFP-N1), end not stated, kept) MELSYATTMHYRDVVFYVTTDRNRAYFVCGGCVYSVGRPCASQPGEIAKFGLVVRGTGPDDRVVANYVRSELRQRGLQDVRPIGEDEVFLDSVCLLNPNVSSELDVINTNDVEVLDECLAEYCTSLRTSPGVLISGLRVRAQDRIIELFEHPTIVNVSSHFVYTPSPYVFALAQAHLPRLPSSLEALVSGLFDGIPAPRQPLDAHNPRTDVVITGRRAPRPIAGSGAGSGGKGAKRATVSEFVQVKHIDRVGPAGVSPAPPPNNTDSSSLVPGAQDSAPPGPTLRELWWVFYAADRALEEPRADSGLTREEVRAVRGFREQAWKLFGSAGAPRAFIGAALGLSPLQKLAVYYYIIHRERRLSPFPALVRLVGRYTQRHGLYVPRPDDPVLADAINGLFRDALAAGTTAEQLLMFDLLPPKDVPVGSDVQADSTALLRFIESQRLAVPGGVISPEHVAYLGAFLSVLYAGRGRMSAATHTARLTGVTSLVLAVGDVDRLSAFDRGAAGAASRTRAAGYLDVLLTVRLARSQHGQSV	did not dramatically alter PP1α coIP
Q174R (protein, left off: GFP (from the vector pEGFP-N1), end not stated, kept) MELSYATTMHYRDVVFYVTTDRNRAYFVCGGCVYSVGRPCASQPGEIAKFGLVVRGTGPDDRVVANYVRSELRQRGLQDVRPIGEDEVFLDSVCLLNPNVSSELDVINTNDVEVLDECLAEYCTSLRTSPGVLISGLRVRAQDRIIELFEHPTIVNVSSHFVYTPSPYVFALARAHLPRLPSSLEALVSGLFDGIPAPRQPLDAHNPRTDVVITGRRAPRPIAGSGAGSGGAGAKRATVSEFVQVKHIDRVGPAGVSPAPPPNNTDSSSLVPGAQDSAPPGPTLRELWWVFYAADRALEEPRADSGLTREEVRAVRGFREQAWKLFGSAGAPRAFIGAALGLSPLQKLAVYYYIIHRERRLSPFPALVRLVGRYTQRHGLYVPRPDDPVLADAINGLFRDALAAGTTAEQLLMFDLLPPKDVPVGSDVQADSTALLRFIESQRLAVPGGVISPEHVAYLGAFLSVLYAGRGRMSAATHTARLTGVTSLVLAVGDVDRLSAFDRGAAGAASRTRAAGYLDVLLTVRLARSQHGQSV	PP1α coIP was abolished
A237V (protein, left off: GFP (from the vector pEGFP-N1), end not stated, kept) MELSYATTMHYRDVVFYVTTDRNRAYFVCGGCVYSVGRPCASQPGEIAKFGLVVRGTGPDDRVVANYVRSELRQRGLQDVRPIGEDEVFLDSVCLLNPNVSSELDVINTNDVEVLDECLAEYCTSLRTSPGVLISGLRVRAQDRIIELFEHPTIVNVSSHFVYTPSPYVFALAQAHLPRLPSSLEALVSGLFDGIPAPRQPLDAHNPRTDVVITGRRAPRPIAGSGAGSGGAGAKRVTVSEFVQVKHIDRVGPAGVSPAPPPNNTDSSSLVPGAQDSAPPGPTLRELWWVFYAADRALEEPRADSGLTREEVRAVRGFREQAWKLFGSAGAPRAFIGAALGLSPLQKLAVYYYIIHRERRLSPFPALVRLVGRYTQRHGLYVPRPDDPVLADAINGLFRDALAAGTTAEQLLMFDLLPPKDVPVGSDVQADSTALLRFIESQRLAVPGGVISPEHVAYLGAFLSVLYAGRGRMSAATHTARLTGVTSLVLAVGDVDRLSAFDRGAAGAASRTRAAGYLDVLLTVRLARSQHGQSV	co-precipitated more PP1α than did WT pUL21-GFP
VV211AA (protein, left off: GFP (from the vector pEGFP-N1), end not stated, kept) MELSYATTMHYRDVVFYVTTDRNRAYFVCGGCVYSVGRPCASQPGEIAKFGLVVRGTGPDDRVVANYVRSELRQRGLQDVRPIGEDEVFLDSVCLLNPNVSSELDVINTNDVEVLDECLAEYCTSLRTSPGVLISGLRVRAQDRIIELFEHPTIVNVSSHFVYTPSPYVFALAQAHLPRLPSSLEALVSGLFDGIPAPRQPLDAHNPRTDAAITGRRAPRPIAGSGAGSGGAGAKRATVSEFVQVKHIDRVGPAGVSPAPPPNNTDSSSLVPGAQDSAPPGPTLRELWWVFYAADRALEEPRADSGLTREEVRAVRGFREQAWKLFGSAGAPRAFIGAALGLSPLQKLAVYYYIIHRERRLSPFPALVRLVGRYTQRHGLYVPRPDDPVLADAINGLFRDALAAGTTAEQLLMFDLLPPKDVPVGSDVQADSTALLRFIESQRLAVPGGVISPEHVAYLGAFLSVLYAGRGRMSAATHTARLTGVTSLVLAVGDVDRLSAFDRGAAGAASRTRAAGYLDVLLTVRLARSQHGQSV	PP1α coIP was abolished
A218E (protein, left off: GFP (from the vector pEGFP-N1), end not stated, kept) MELSYATTMHYRDVVFYVTTDRNRAYFVCGGCVYSVGRPCASQPGEIAKFGLVVRGTGPDDRVVANYVRSELRQRGLQDVRPIGEDEVFLDSVCLLNPNVSSELDVINTNDVEVLDECLAEYCTSLRTSPGVLISGLRVRAQDRIIELFEHPTIVNVSSHFVYTPSPYVFALAQAHLPRLPSSLEALVSGLFDGIPAPRQPLDAHNPRTDVVITGRREPRPIAGSGAGSGGAGAKRATVSEFVQVKHIDRVGPAGVSPAPPPNNTDSSSLVPGAQDSAPPGPTLRELWWVFYAADRALEEPRADSGLTREEVRAVRGFREQAWKLFGSAGAPRAFIGAALGLSPLQKLAVYYYIIHRERRLSPFPALVRLVGRYTQRHGLYVPRPDDPVLADAINGLFRDALAAGTTAEQLLMFDLLPPKDVPVGSDVQADSTALLRFIESQRLAVPGGVISPEHVAYLGAFLSVLYAGRGRMSAATHTARLTGVTSLVLAVGDVDRLSAFDRGAAGAASRTRAAGYLDVLLTVRLARSQHGQSV	PP1α coIP was abolished
R250E (protein, left off: GFP (from the vector pEGFP-N1), end not stated, kept) MELSYATTMHYRDVVFYVTTDRNRAYFVCGGCVYSVGRPCASQPGEIAKFGLVVRGTGPDDRVVANYVRSELRQRGLQDVRPIGEDEVFLDSVCLLNPNVSSELDVINTNDVEVLDECLAEYCTSLRTSPGVLISGLRVRAQDRIIELFEHPTIVNVSSHFVYTPSPYVFALAQAHLPRLPSSLEALVSGLFDGIPAPRQPLDAHNPRTDVVITGRRAPRPIAGSGAGSGGAGAKRATVSEFVQVKHIDEVGPAGVSPAPPPNNTDSSSLVPGAQDSAPPGPTLRELWWVFYAADRALEEPRADSGLTREEVRAVRGFREQAWKLFGSAGAPRAFIGAALGLSPLQKLAVYYYIIHRERRLSPFPALVRLVGRYTQRHGLYVPRPDDPVLADAINGLFRDALAAGTTAEQLLMFDLLPPKDVPVGSDVQADSTALLRFIESQRLAVPGGVISPEHVAYLGAFLSVLYAGRGRMSAATHTARLTGVTSLVLAVGDVDRLSAFDRGAAGAASRTRAAGYLDVLLTVRLARSQHGQSV	dramatically reduced binding

From publication PMC12723162, “Alphaherpesvirus pUL21 homologs use non-canonical sequences to compete with cellular adaptors for protein phosphatase 1 binding” (The Journal of Biological Chemistry, 2025)
